Results as given in US6329500.

How the values were obtained:
[1] = molecular target: transforming growth factor-β1 (TGF-β1); experiment: solution-phase competitor of ^125 I-TGF-β1 binding to immobilized α2 M-MA
[2] = molecular target: methylamine-modified human α2 -macroglobulin (α2 M-MA) (human) (UniProt P01023); experiment: ^125 I-TGF-β2 in α2 M-MA-coated wells with 0.2 µM unlabeled TGF-β
[3] = molecular target: GST-α2 M peptide-fusion protein FP3 (human) (UniProt P01023); experiment: ligand blot; ^125 I-TGF-β2 on PVDF-immobilized FP3 with 0.2 µM unlabeled TGF-β2
[4] = molecular target: transforming growth factor-β1 (TGF-β1); experiment: 0.1 nM ^125 I-TGF-β1 in α2 M-MA-coated microtiter wells, 1 h
[5] = molecular target: transforming growth factor-β2 (TGF-β2); experiment: 0.1 nM ^125 I-TGF-β2 in α2 M-MA-coated microtiter wells, 1 h
[6] = molecular target: methylamine-modified human α2 -macroglobulin (α2 M-MA) (human) (UniProt P01023); experiment: ^125 I-TGF-β1 in α2 M-MA-coated wells with 0.2 µM unlabeled TGF-β
[7] = molecular target: GST-α2 M peptide-fusion protein FP3 (human) (UniProt P01023); experiment: ligand blot; ^125 I-TGF-β1 on PVDF-immobilized FP3 with 0.2 µM unlabeled TGF-β1

**Q.** How did the IC50 [1] turn out when “monomeric human α2 -macroglobulin (from UniProt P01023)” was run?
**A.** 0.36 µM

**Q.** What does the source list for “transforming growth factor-β2 (TGF-β2) (ligand)”?
**A.** percent decrease of binding [2]: > 75%; percent inhibition of binding [3]: 90%

**Q.** “methylamine-modified human α2 -macroglobulin (α2 M-MA) (from UniProt P01023)” was tested. Which amount of ^125 I-TGF-β bound [4] did it give?
**A.** 3.4 fmol

**Q.** What about the amount of ^125 I-TGF-β bound [5] of the same substance?
**A.** 2.6 fmol

**Q.** Which results are given for “transforming growth factor-β1 (TGF-β1) (ligand)”?
**A.** percent decrease of binding [6]: > 75%; percent inhibition of binding [7]: 72%
